Measurements from the supplement of paper PMC9170038.

Experiments:
[1] = system: MS2 coat protein; experiment: apparent KD of MS2 coat protein; designed switch direction (-1 OFF switch, 1 ON switch): 1; higher = weaker reporter binding; details: Eterna round: R98
Experimental: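 RNA-MaP: designed FMN/MS2 RNA switches (84 nt design region) are transcribed on-chip within common flanks and titrated with SNAP-549-labelled MS2 coat protein (about 1-3000 nM) in 100 mM Tris pH 7.5, 80 mM KCl, 4 mM MgCl2, without or with 200 uM FMN. Median apparent KD per design; activation ratio = KD,OFF / KD,ON.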

[2] = system: MS2 coat protein; experiment: apparent KD of MS2 coat protein, switch ON state; designed switch direction (-1 OFF switch, 1 ON switch): 1; higher = weaker reporter binding; details: FMN input: 0 or 200 uM; Eterna round: R93 (includes R88 designs)
Summary of the method: (§1)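 Designed RNA switches were transcribed on-chip from Illumina sequencing clusters. SNAP-549-labelled MS2 coat protein was titrated onto them in twofold steps from 0.7 or 1.5 nM to 3 µM in 100 mM Tris-HCl pH 7.5, 80 mM KCl, 4 mM MgCl2, either without or with constant ligand. Apparent KD reflects the per-design median of normalised cluster binding-curve fits.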

[3] = system: MS2 coat protein; experiment: apparent KD of MS2 coat protein, switch OFF state (with FMN for OFF switches, without FMN for ON switches); designed switch direction (-1 OFF switch, 1 ON switch): 1; higher = weaker reporter binding; details: FMN input: 0 or 200 uM; Eterna round: R93 (includes R88 designs)
Summary of the method: as §1

Sequence: AAAACAUACCGAGGAUAUUCAUUUUAUAAAUAAACAUGAGGAUCACCCAUGUGGCAAAAGCCUAGGGAGAAGGCGGAAUGCUAA [salish99_SSNG2_r2_121]
- apparent KD of MS2 coat protein ([1]; input ligand: FMN 200 uM): 29.9 nM
- apparent KD of MS2 coat protein ([1]; input ligand: none): 39.6 nM

Sequence: AAAACAUGAGGAUCACCCAUGUAAAGAACGGUUAAUUAAAGUGAGGAUAUACAAAAUUUUAUAUAGUAGAAGGCACUGGGUACA [JR_SSNG3_Sub022]
- apparent KD of MS2 coat protein ([1]; input ligand: FMN 200 uM): 24.9 nM
- apparent KD of MS2 coat protein ([1]; input ligand: none): 21.4 nM

Sequence: AGCGGUAGGACAGGAUAUGGUGACUUCAAGCGGCCAGAAGGGUCCCGACAUGAGGAUCACCCAUGUCUUCCAGGCAGGGAGCGC [Teanisradi]
- apparent KD of MS2 coat protein ([1]; input ligand: FMN 200 uM): 710 nM
- apparent KD of MS2 coat protein ([1]; input ligand: none): 234 nM

Sequence: CACACAUGGUGAGGAUAUGCAGAGGAUCACCCUGUAGAAGGCAUCAGGGUAGAAGGUGCAAGGAUCACCUGUAAGGAUAUAUCC [pwkr2 ssNG1 DX.27]
- apparent KD of MS2 coat protein ([1]; input ligand: FMN 200 uM): 1030 nM
- apparent KD of MS2 coat protein ([1]; input ligand: none): 1430 nM

Sequence: CCAGAUGUGUGAGGAUAUAGAGUGGAAUACACUCUAGAAGGUAUGUGAAAACAUGAGGAUCACCCAUGUGAUUAAUCAUCUGGA [SameState #2 NG1]
- apparent KD of MS2 coat protein ([1]; input ligand: FMN 200 uM): 27.9 nM
- apparent KD of MS2 coat protein ([1]; input ligand: none): 24.4 nM

Sequence: CCCUCCAGAAGAGGGACAUGAGGAUCACCCAUGUAGGCUGCACAGGAUAUCGAUCGGAGGCGGUACGAGAAGGGUGACGUCAUU [Atleis]
- apparent KD of MS2 coat protein ([1]; input ligand: FMN 200 uM): 48.7 nM
- apparent KD of MS2 coat protein ([1]; input ligand: none): 26.9 nM

Sequence: CCUGACACUUGAGGAUAUGCUCAGGAUAACUGAGCAGAAGGCAGGAAAACCUGAGGAUCACCCAGGUAAGUCAGGAAUAAUAAA [Same State NG1 - A3C, U17G Submission 3B]
- apparent KD of MS2 coat protein ([1]; input ligand: FMN 200 uM): 15.8 nM
- apparent KD of MS2 coat protein ([1]; input ligand: none): 21.7 nM

Sequence: GAAAUACAUGAGGAUCACCCAUGUUAGGUGGGUCAAGGAUAUUGAUAUAAAUAAAAAACUCGAGAAGGUGAAUAAA [JR_SS001_Sub201]
- apparent KD of MS2 coat protein [2]: 229 nM
- apparent KD of MS2 coat protein [3]: 179 nM

Sequence: GAAGAACAUGAGGAUCACCCAUGUGAGAACAUGGGAGGAUAUACGAGGACGAAAGUCAAAGUAGAAGGCCUAAGAG [Garnet 87]
- apparent KD of MS2 coat protein [2]: 104 nM
- apparent KD of MS2 coat protein [3]: 29.8 nM

Sequence: GAAGACAUAGUUCAGGAUAUAUGAAUAGUCACAUGAGGAUCACCCAUGUCCAUUUAUAUGGGCACAUAGAAGGGAGGUAGUUAUC [SameState2 Malc#25]
- apparent KD of MS2 coat protein [2]: 618 nM
- apparent KD of MS2 coat protein [3]: 380 nM

Sequence: GACAGACAUGAGGAUCACCCAUGUAGAAUUAUGGGAGGAUAUACAAAGACGAGAGUCAGAGUAGAAGGCCUAGGAA [salish99-ss1-167]
- apparent KD of MS2 coat protein [2]: 23.2 nM
- apparent KD of MS2 coat protein [3]: 52.8 nM

Sequence: GACGAAAUCUUAGGAUAUGCUCAGGAAUACUGAGCAGAAGGAAGAUAUACCUGAGGAUCACCCAGGUUAAACUGGACGUCAAUA [Same State NG1 - A3C, U17G Submission 8I U7A]
- apparent KD of MS2 coat protein ([1]; input ligand: FMN 200 uM): 24.9 nM
- apparent KD of MS2 coat protein ([1]; input ligand: none): 29.4 nM

Sequence: GAUAGGAAGAGAGAGGAUAUCCAAAGGAAAACAUGAGGAUCACCCAUGUAAAAGGUAGGAAAUUGGGAGAAGGCUCAAGAGAGAG [salish99-ss2-075]
- apparent KD of MS2 coat protein [2]: 11.6 nM
- apparent KD of MS2 coat protein [3]: 31.9 nM

Sequence: GCAAAACAUGAGGAUCACCCAUGUGAAAAGAAUGUAGGAUAUGGGCUCAGAAAUAGCAGCCCAGAAGGGCGAAGAA [Xequamara]
- apparent KD of MS2 coat protein [2]: 21.9 nM
- apparent KD of MS2 coat protein [3]: 24.8 nM

Sequence: GCAGAAGGUGCGGAGGAUCACCCUGUAAGGAUAUGCAUUAGCAAGGAUAUACAGAGGAUCACCCUGUAGAAGGUGCACUACUCA [pwkr2 ssNG3 DX.3]
- apparent KD of MS2 coat protein ([1]; input ligand: FMN 200 uM): 562 nM
- apparent KD of MS2 coat protein ([1]; input ligand: none): 1970 nM

Sequence: GCCGGUUAUGAGCAGGAUAUGUCACCGCUAACAUGAGGAUCACCCAUGUGAGCAAAAUCGAGGUCACAGAAGGGUUCCGGCAAAA [Disoerce]
- apparent KD of MS2 coat protein [2]: 17.8 nM
- apparent KD of MS2 coat protein [3]: 41.9 nM
